Source: US20190175688A1 (DREXEL UNIVERSITY, published 2019)
Starred links: 1 amine or outer side, 2 acyl side, 3 side chain; linkers in the order of their positions; H or OH if unused. Positions of bridges follow the written chain, without caps; N, C: chain ends. Non-standard residues stand in square brackets, D forms with d. No end group written: not given here. X2 = (2S,4S)‑4‑(4-ferrocenyl-1H-1,2,3-triazol-1-yl)pyrrolidine‑2‑carboxylic acid, O=C([C@@H]1C[C@H](n2cc(-[c-]3cccc3)nn2)CN1[*:1])[*:2].[Fe+2].c1cc[cH-]c1; X3 = (2S,4S)‑4‑(4-ferrocenyl-1H-1,2,3-triazol-1-yl)proline, O=C([C@@H]1C[C@H](n2cc(-[c-]3cccc3)nn2)CN1[*:1])[*:2].[Fe+2].c1cc[cH-]c1; Pro(cis-4-Trz(4-CH2CH2Ph)) = O=C(O)[C@@H]1C[C@H](n2cc(CCc3ccccc3)nn2)CN1; Bta = N[C@@H](Cc1csc2ccccc12)C(=O)O; Gly(cPr) = N[C@H](C(=O)O)C1CC1; Nle = CCCC[C@H](N)C(=O)O; Orn = NCCC[C@H](N)C(=O)O; Dab = NCC[C@H](N)C(=O)O

What was measured:
[1] = molecular target: T1, HIV-1 YU-2 gp120 (wild-type gp120YU-2, monomeric) (HIV-1 (YU-2), UniProt P35961 32-498); experiment: SPR competition (Biacore 3000): 250 nM gp120 YU-2 with increasing peptide over immobilised sCD4
T1 construct: domain: gp120; only gp120 stood in the assay

[2] = molecular target: T1, HIV-1 YU-2 gp120 (wild-type gp120YU-2, …); experiment: SPR competition (Biacore 3000): 250 nM gp120 YU-2 with increasing peptide over immobilised mAb 17b
[3] = molecular target: T1, HIV-1 YU-2 gp120 (wild-type gp120YU-2, …); experiment: SPR competition binding assay on gp120
[4] = molecular target: T1, HIV-1 YU-2 gp120 (wild-type gp120YU-2, …); experiment: SPR competition: fixed 250 nM HIV-1 YU-2 gp120 with increasing peptide passed over immobilized sCD4; inhibition of gp120 binding to sCD4
[5] = molecular target: HIV-1 BaL.01 envelope on BaL.01 pseudotyped virus (HIV-1 (BaL.01)); experiment: cell-based or functional assay
[6] = molecular target: T2, HIV-1 JR-FL envelope (gp120) on JR-FL pseudotyped virus (HIV-1 (JR-FL)); experiment: cell-based or functional assay
[7] = molecular target: T1, HIV-1 YU-2 gp120 (wild-type gp120YU-2, …); experiment: SPR competition on gp120; which of sCD4 or 17b is not said
[8] = molecular target: T1, HIV-1 YU-2 gp120 (wild-type gp120YU-2, …); experiment: SPR competition: fixed 250 nM HIV-1 YU-2 gp120 with increasing peptide passed over immobilized mAb 17b; inhibition of gp120 binding to 17b
[9] = molecular target: T1, HIV-1 YU-2 gp120 (wild-type gp120YU-2, …); experiment: SPR competition, sCD4 inhibition: inhibition of gp120 binding to immobilized sCD4
[10] = molecular target: T1, HIV-1 YU-2 gp120 (wild-type gp120YU-2, …); experiment: SPR competition, 17b inhibition: inhibition of gp120 binding to immobilized mAb 17b
[11] = molecular target: T1, HIV-1 YU-2 gp120 (wild-type gp120YU-2, …); experiment: SPR competition (Biacore 3000): 250 nM gp120 YU-2 with increasing peptide over immobilised mAb 17b; inhibition of mAb 17b binding to gp120
[12] = molecular target: T1, HIV-1 YU-2 gp120 (wild-type gp120YU-2, …); experiment: SPR competition (Biacore 3000): 250 nM gp120 YU-2 with increasing peptide over immobilised sCD4; inhibition of CD4 binding to gp120
[13] = molecular target: T2, HIV-1 JR-FL envelope (gp120) on JR-FL …; experiment: cell-based or functional assay; remark: listed apart in the source
[14] = molecular target: T1, HIV-1 YU-2 gp120 (wild-type gp120YU-2, …); experiment: SPR competition: fixed 250 nM HIV-1 YU-2 gp120 with increasing peptide passed over immobilized sCD4; inhibition of gp120 binding to sCD4; remark: listed apart in the source
[15] = molecular target: T1, HIV-1 YU-2 gp120 (wild-type gp120YU-2, …); experiment: SPR competition: fixed 250 nM HIV-1 YU-2 gp120 with increasing peptide passed over immobilized mAb 17b; inhibition of gp120 binding to 17b; remark: listed apart in the source
[16] = molecular target: T1, HIV-1 YU-2 gp120 (wild-type gp120YU-2, …); experiment: >
[17] = molecular target: T1, HIV-1 YU-2 gp120 (wild-type gp120YU-2, …); experiment: SPR competition: fixed 250 nM HIV-1 YU-2 gp120 with increasing peptide passed over immobilized sCD4; inhibition of gp120 binding to sCD4; remark: listed apart in the source

B1: AAR029 (peptide)
peptide: DNI[Pro(cis-4-Trz(4-CH2CH2Ph))]WK-NH2
modifications: lactam 1-6
notes: Cyclic hexapeptide triazole; also called minimized hexapeptide AAR029; macrocycle AAR029
[1]
  IC50: 85 nM
[2]
  IC50: 96 nM
[3]
  fold enhanced activity vs AAR029b: ~2 fold
[4]
  IC50: 85.2 nM
[5]
  IC50, HIV-1 infection inhibition, Bal.01 pseudotyped virus: 2020 nM
[6]
  IC50, HIV-1 infection inhibition, JR-FL pseudotyped virus: 2330 nM
[7]
  fold more active than AAR029A: > 200 fold
[8]
  IC50: 95.5 nM

B2: AAR031 (peptide)
peptide: DNI[Pro(cis-4-Trz(4-CH2CH2Ph))]W[Orn]-NH2
modifications: lactam 1-6; N-terminus assumed
SMILES: CC[C@H](C)[C@@H]1NC(=O)[C@H](CC(N)=O)NC(=O)[C@@H](N)CC(=O)NCCC[C@@H](C(N)=O)NC(=O)[C@H](Cc2c[nH]c3ccccc23)NC(=O)[C@@H]2C[C@H](n3cc(CCc4ccccc4)nn3)CN2C1=O
[9]
  IC50: 5700 nM
[10]
  IC50: 3900 nM

## ENI[Pro(cis-4-Trz(4-CH2CH2Ph))]W[Dab]-NH2 (lactam 1-6, also called macrocycle AAR030) [AAR030]
[9]
  IC50: > 20000 nM
[10]
  IC50: > 20000 nM

B3: AAR032 (peptide)
peptide: DNI[Pro(cis-4-Trz(4-CH2CH2Ph))]W[Dab]-NH2
modifications: lactam 1-6; N-terminus assumed
SMILES: CC[C@H](C)[C@@H]1NC(=O)[C@H](CC(N)=O)NC(=O)[C@@H](N)CC(=O)NCC[C@@H](C(N)=O)NC(=O)[C@H](Cc2c[nH]c3ccccc23)NC(=O)[C@@H]2C[C@H](n3cc(CCc4ccccc4)nn3)CN2C1=O
[3]
  fold improvement vs AAR031: ~10 fold
[9]
  IC50: 500 nM
[10]
  IC50: 400 nM

B4: AAR024 (peptide)
peptide: IENI[Pro(cis-4-Trz(4-CH2CH2Ph))]WK-NH2
modifications: lactam 2-7; N-terminus assumed
SMILES: CC[C@H](C)[C@H](N)C(=O)N[C@H]1CCC(=O)NCCCC[C@@H](C(N)=O)NC(=O)[C@H](Cc2c[nH]c3ccccc23)NC(=O)[C@@H]2C[C@H](n3cc(CCc4ccccc4)nn3)CN2C(=O)[C@H]([C@@H](C)CC)NC(=O)[C@H](CC(N)=O)NC1=O
notes: Cyclic peptide triazole; also called cyclic heptapeptide AAR024
[11]
  IC50: 269 nM
[12]
  IC50: 138 nM
[7]
  fold more active than the linear AAR024A: > 40 fold

## DN[Gly(cPr)][X2]WK-NH2 (lactam 1-6) [AAR042]
[9]
  IC50: ~2000 nM
[10]
  IC50: ~2000 nM

## DNI[X2]WK-NH2 (lactam 1-6, Ferrocenyl analogue of AAR029) [AAR029b]
[13]
  gp120 shedding EC50 (JR-FL pseudotyped virus, Western blot densitometry of supernatant): 316 nM
[5]
  IC50, HIV-1 infection inhibition, Bal.01 pseudotyped virus: 210 nM
[6]
  IC50, HIV-1 infection inhibition, JR-FL pseudotyped virus: 190 nM
[9]
  IC50: 32 nM
[10]
  IC50: 35 nM

## DNI[(2S,4S)‑4‑(4-(adamantan-2-yl)-1H-1,2,3-triazol-1-yl)pyrrolidine‑2‑carboxylic acid]WK-NH2 (lactam 1-6) [AAR029F]
[5]
  IC50, HIV-1 infection inhibition, Bal.01 pseudotyped virus: ~1300 nM
[9]
  IC50: ~200 nM
[10]
  IC50: ~200 nM

B5: AAR024A (peptide)
peptide: IENI[Pro(cis-4-Trz(4-CH2CH2Ph))]WK-NH2
modifications: N-terminus assumed
SMILES: CC[C@H](C)[C@H](N)C(=O)N[C@@H](CCC(=O)O)C(=O)N[C@@H](CC(N)=O)C(=O)N[C@H](C(=O)N1C[C@@H](n2cc(CCc3ccccc3)nn2)C[C@H]1C(=O)N[C@@H](Cc1c[nH]c2ccccc12)C(=O)N[C@@H](CCCCN)C(N)=O)[C@@H](C)CC
notes: Acyclic (linear) counterpart of AAR024; also called acyclic analogue of AAR024; linear AAR024A
[14]
  IC50: 7890 nM
[15]
  IC50: 11300 nM
[9]
  IC50: 7890 nM
[16]
  fold less active than AAR024: 50 fold
[10]
  IC50: 11300 nM

B6: AAR026 (peptide)
peptide: ENNI[Pro(cis-4-Trz(4-CH2CH2Ph))]WK-NH2
modifications: lactam 1-7; N-terminus assumed
SMILES: CC[C@H](C)[C@@H]1NC(=O)[C@H](CC(N)=O)NC(=O)[C@H](CC(N)=O)NC(=O)[C@@H](N)CCC(=O)NCCCC[C@@H](C(N)=O)NC(=O)[C@H](Cc2c[nH]c3ccccc23)NC(=O)[C@@H]2C[C@H](n3cc(CCc4ccccc4)nn3)CN2C1=O
notes: Cyclic peptide triazole
[1]
  IC50: 540 nM
[2]
  IC50: 384 nM
[17]
  IC50: 541 nM
[9]
  IC50: 541 nM

## IENI[X3]WK-NH2 (lactam 2-7, Ferrocenyl analogue of AAR024) [AAR024b]
[5]
  IC50, HIV-1 infection inhibition, Bal.01 pseudotyped virus: 650 nM
[6]
  IC50, HIV-1 infection inhibition, JR-FL pseudotyped virus: 603 nM
[9]
  IC50: 40 nM
[10]
  IC50: 37.6 nM

## DN[Nle][X2]WK-NH2 (lactam 1-6) [AAR036]
[9]
  IC50: ~2000 nM
[10]
  IC50: ~2000 nM

## DNI[(2S,4S)‑4‑(4-(4-ethylphenyl)-1H-1,2,3-triazol-1-yl)pyrrolidine‑2‑carboxylic acid]WK-NH2 (lactam 1-6) [AAR029H]
[5]
  IC50, HIV-1 infection inhibition, Bal.01 pseudotyped virus: ~1900 nM
[9]
  IC50: ~318 nM
[10]
  IC50: ~245 nM

## DNI[X2][Bta]K-NH2 (lactam 1-6) [AAR029E]
[5]
  IC50, HIV-1 infection inhibition, Bal.01 pseudotyped virus: 26 nM
[9]
  IC50: ~20 nM
[10]
  IC50: ~20 nM
